Data on five molecules can be found in publication PMC11667970, “Mycobacterium tuberculosis Mce3R TetR-like Repressor Forms an Asymmetric Four-Helix Bundle and Binds a Nonpalindrome Sequence†” (ACS Chemical Biology, 2024).

Series [1] addresses T1, Mce3R (Mycobacterium tuberculosis H37Rv, UniProt P95251 1-406).
T1 sequence: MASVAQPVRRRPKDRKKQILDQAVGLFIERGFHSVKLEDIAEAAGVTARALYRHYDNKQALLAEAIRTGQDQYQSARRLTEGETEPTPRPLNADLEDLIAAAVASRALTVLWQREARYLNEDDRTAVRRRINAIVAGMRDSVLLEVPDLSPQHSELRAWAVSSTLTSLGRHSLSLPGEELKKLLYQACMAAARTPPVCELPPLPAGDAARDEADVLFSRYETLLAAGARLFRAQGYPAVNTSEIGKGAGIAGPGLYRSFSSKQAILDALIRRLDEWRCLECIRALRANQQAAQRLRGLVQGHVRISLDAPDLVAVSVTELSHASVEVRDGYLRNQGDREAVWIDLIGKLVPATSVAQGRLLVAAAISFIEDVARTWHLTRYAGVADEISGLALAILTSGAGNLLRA
The experiment in a line: EMSA; up to 128 nM Mce3R, 1 ug poly(dI-dC). Particulars: protein: recombinant; tags: MBP-His6 N-terminal, removed with TEV; chain copies: 2; label: 5'-Cy3 (forward strand); blunt. (In general: In EMSA bound probe runs differently from free probe, usually more slowly.)

Series [2] deals with T1, Mce3R. Nature of the series: EMSA; 10 nM DNA, 0-128 nM protein. Particulars: protein: recombinant; tags: MBP-His6 N-terminal, removed with TEV; chain copies: 2; label: 5'-Cy3 (forward strand); blunt.
The series “SEC” deals with the molecule itself. The experiment in a line: SEC. (Size exclusion chromatography separates by hydrodynamic size, large species first.)
The target of series [3] is T1, Mce3R. The experiment in a line: EMSA. Conditions: protein: recombinant; tags: MBP-His6 N-terminal, removed with TEV; chain copies: 2; label: 5'-Cy3; blunt.

B1: Probe A' (dsDNA)
DNA 1: CCAGTGCGACCTAACCAAGGACCTACAGATTCTGTCCGTGAGAGAATCGTGTTGGCCTCAGAAGACGGTCGCAAGTTCTCTTTATGACCTGCTAAACTTGAGCCTATATTAGTTATCGCACCT
DNA 2: AGGTGCGATAACTAATATAGGCTCAAGTTTAGCAGGTCATAAAGAGAACTTGCGACCGTCTTCTGAGGCCAACACGATTCTCTCACGGACAGAATCTGTAGGTCCTTGGTTAGGTCGCACTGG
With B1, in the series with Mce3R [1], the binding result was “no binding”.

B2: Probe A* (dsDNA)
DNA 1: CTACAAGTGCTGGAGGTCAAATCCCGCATCAACATAGCCAATATATGCCAGTTTGCATTGCTATTTACCGATCAGTTGTCCAAGCAATCGCGTATTGGCTATGGACATCAGCGGTTCTGCCGC
DNA 2: GCGGCAGAACCGCTGATGTCCATAGCCAATACGCGATTGCTTGGACAACTGATCGGTAAATAGCAATGCAAACTGGCATATATTGGCTATGTTGATGCGGGATTTGACCTCCAGCACTTGTAG
B2: in the series with Mce3R [2], the Kd was determined as 0.059 ± 0.01 µM.

B3: Mce3R (Rv1963c), full-length TetR-like repressor of Mycobacterium tuberculosis (natural protein)
chain: T1 sequence
notes: Mce3R (Rv1963c), Mycobacterium tuberculosis H37Rv, full length; calculated MW 44.3 kDa; also called M1M2 TFR; wild-type Mce3R; not shown: MBP, N-terminal, cleaved; His6, N-terminal, cleaved
B3: the “stoichiometry N” value in the series “SEC” worked out at 2.

B4: Probe A (dsDNA)
DNA 1: GCCCCGCGCTATAGGATACTAGCAAGATACATCATAGCCAATATATGCCAGTTTGCATTGCTATTTACCGATCAGTTGTCCAAGCAATCGCGTATTGGCTATGGACATCAGCGGTTCTGCCGC
DNA 2: GCGGCAGAACCGCTGATGTCCATAGCCAATACGCGATTGCTTGGACAACTGATCGGTAAATAGCAATGCAAACTGGCATATATTGGCTATGATGTATCTTGCTAGTATCCTATAGCGCGGGGC
Consider B4, for which the Kd with Mce3R [2] is 0.0024 ± 0.0007 µM.

B5: Probe C (dsDNA)
DNA 1: TAGCCAATATATGCCAGTTTGCATTGCTATTTACCGATCAGTTGTCCAAGCAATCGCGTATTGGCTATGGACATCAGCGGTTCTGCCGC
DNA 2: GCGGCAGAACCGCTGATGTCCATAGCCAATACGCGATTGCTTGGACAACTGATCGGTAAATAGCAATGCAAACTGGCATATATTGGCTA
On to B5, for which the binding result with Mce3R [3] is “binds”.

For orientation: Kd means a measure of binding affinity in units of concentration. The term stoichiometry N denotes a count of units in the complex or per binding partner.
